In the experiment the target is T1, HLA B*0702 (human).
T1 construct: Class I MHC molecule of the cells from which the associated phosphopeptides were detected; also called HLA-B7
Put plainly: MS of peptides eluted from HLA; L/M column: L.

Non-standard residues stand in square brackets, D forms with d. No end group written: not given here. pT = C[C@@H](OP(=O)(O)O)[C@H](N)C(=O)O; pS = N[C@@H](COP(=O)(O)O)C(=O)O

The results in this text go back to patent US20150224182A1 (UNIVERSITY OF VIRGINIA PATENT FOUNDATION, published 2015).

As to RPI[pT]PPRNSA [RPItPPRNSA], the binding result is given as “binds”. In the case of KPPYRSH[pS]L [KPPYRSHsL] it was “binds”. With RPP[pS]PGPVL [RPPsPGPVL] the entry was “binds”; with RPR[pS]PAARL [RPRsPAARL], “binds”; with RPR[pS]PGSNSKV [RPRsPGSNSKV], “binds”. In the case of RPR[pS]PTGP[pS]NSF [RPRsPTGPsNSF] it was “binds”; in that of RSG[pS]LERKV [RSGsLERKV], “binds”. Turning to RAP[pS]PSSRM [RAPsPSSRM], the binding result is “binds”. In the case of RPA[pT]GGPGVA [RPAtGGPGVA], the binding result was “binds”. With SPK[pS]PGLKA [SPKsPGLKA] the entry was “binds”; with RPP[pS]SEFLDL [RPPsSEFLDL], “binds”. With RP[pS]SPALYF [RPsSPALYF] the entry was “binds”; with RPY[pS]PPFFSL [RPYsPPFFSL], “binds”; with RPW[pS]PAVSA [RPWsPAVSA], “binds”.

Consider QPR[pS]PGPDYSL [QPRsPGPDYSL], for which the binding result was “binds”. In the case of KPP[pT]PGASF [KPPtPGASF] it was “binds”. In the case of RPA[pS]AGAML [RPAsAGAML] it was “binds”; in that of SPSTSRSGG[pS]SRL [SPSTSRSGGsSRL], “binds”; in that of RPH[pS]PEKAF [RPHsPEKAF], “binds”.

Take RPKPSS[pS]PV [RPKPSSsPV]: the binding result is “binds”. In the case of FSI[pS]PVRL [FSIsPVRL] it was “binds”. Turning to SPR[pS]PGKPM [SPRsPGKPM], the binding result was “binds”. With SPR[pS]PSTTYL [SPRsPSTTYL] the entry was “binds”; with KPP[pS]PEHQSL [KPPsPEHQSL], “binds”. In the case of FRR[pS]PTKSSL [FRRsPTKSSL] it was “binds”; in that of RPAK[pS]MDSL [RPAKsMDSL], “binds”. In the case of RRK[pS]QVAEL [RRKsQVAEL] it was “binds”; in that of RSL[pS]PGGAA [RSLsPGGAA], “binds”. Consider SPS[pS]PSVRRQL [SPSsPSVRRQL], for which the binding result is reported as “binds”.

RPSRS[pS]PGL [RPSRSsPGL]: the binding result was “binds”. TPAQPQRR[pS]L [TPAQPQRRsL]: the binding result is on record as “binds”. With RPF[pS]PREAL [RPFsPREAL] the entry was “binds”. In the case of RSL[pS]PLLF [RSLsPLLF] it was “binds”; in that of RTE[pS]DSGLKK [RTEsDSGLKK], “binds”; in that of RPQRAT[pS]NVF [RPQRATsNVF], “binds”. With FRR[pS]PTKSSLDY [FRRsPTKSSLDY] the entry was “binds”. For KPY[pS]PLASL [KPYsPLASL], the binding result is “binds”.

On to RPPPPPD[pT]PP [RPPPPPDtPP], for which the binding result is recorded as “binds”. With RPR[pS]LEVTI [RPRsLEVTI] the entry was “binds”. In the case of SPEKAGRR[pS]SL [SPEKAGRRsSL] it was “binds”. In the case of RPV[pT]PVSDL [RPVtPVSDL] it was “binds”; in that of RPR[pS]PSPIS [RPRsPSPIS], “binds”. On to KPPH[pS]PLVL [KPPHsPLVL], for which the binding result is listed as “binds”. In the case of EPKRR[pS]ARL [EPKRRsARL] it was “binds”. Take RSE[pS]KDRKL [RSEsKDRKL]: the binding result is listed as “binds”.

For RPRPH[pS]APSL [RPRPHsAPSL], the binding result is “binds”. In the case of RPR[pS]PTGP [RPRsPTGP] it was “binds”. For the molecule LPA[pS]PRARL [LPAsPRARL], the binding result is listed as “binds”. In the case of RPRAN[pS]GGVDL [RPRANsGGVDL] it was “binds”; in that of VPR[pS]PKHAHSSSL [VPRsPKHAHSSSL], “binds”.

With RRS[pS]LDAEIDSL [RRSsLDAEIDSL], the binding result is “binds”.

With RPN[pS]PSPTAL [RPNsPSPTAL], the binding result is recorded as “binds”. In the case of RPKLS[pS]PAL [RPKLSsPAL] it was “binds”; in that of KPQTRGK[pT]F [KPQTRGKtF], “binds”.

For the molecule KPR[pS]PDHVL [KPRsPDHVL], the binding result is reported as “binds”. In the case of RPR[pS]PRQNSI [RPRsPRQNSI] it was “binds”; in that of SPGLARKR[pS]L [SPGLARKRsL], “binds”. With RPQRA[pT]SNVF [RPQRAtSNVF] the entry was “binds”; with KPA[pS]PKFIVTL [KPAsPKFIVTL], “binds”. In the case of RPD[pS]RLGKTEL [RPDsRLGKTEL], the binding result is “binds”. In the case of KPA[pS]PARRL [KPAsPARRL] it was “binds”. On to RPV[pS]PGKDI [RPVsPGKDI], for which the binding result was “binds”.

As to RPR[pS]AVLL [RPRsAVLL], the binding result is given as “binds”. In the case of SPA[pS]PKISL [SPAsPKISL], the binding result is on record as “binds”. With TPI[pS]PGRASGM [TPIsPGRASGM] the entry was “binds”.
